Measurements published in patent publication US20200262877A1, “ION CHANNEL-BINDING PEPTIDES AND METHODS OF USE THEREOF” (priority 2017, published 2020).

What was measured:
NR2B = biological target: T1, NR2B (Homo sapiens, UniProt Q13224); test: Ion channel panel (IonWorks Barracuda): NR2B; format: cell-based; details: 100% = no change, <100% = inhibition
T1 construct: host or cells: HEK293 or CHO
Summary of the method: (§1)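 Peptides were tested in duplicate at final 20 μM and 200 nM, with concentration set by amino acid analysis, in HEPES-buffered saline. They were applied for at least 5 min to HEK293 or CHO cells transfected with each channel. Currents were expressed as % inhibition, 1-(Ipeptide/Icontrol)×100, or % activation, Ipeptide/Icontrol×100, against a channel-matched reference compound.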

Cav2.2 = biological target: T2, Cav2.2 (Homo sapiens, UniProt Q00975); test: cell-based; details: 100% = no change, <100% = inhibition
T2 construct: host or cells: HEK293 or CHO
Summary of the method: as §1

Kv2.1 = biological target: T3, Kv2.1 (Homo sapiens, UniProt Q14721); test: cell-based; details: 100% = no change, <100% = inhibition
T3 construct: host or cells: HEK293 or CHO
Summary of the method: as §1

Cav2.1 = biological target: T4, Cav2.1 (Homo sapiens, UniProt O00555); test: cell-based; details: 100% = no change, <100% = inhibition
T4 construct: host or cells: HEK293 or CHO
Summary of the method: as §1

α4β2 = biological target: T5, α4β2 (Homo sapiens, UniProt P17787+P43681); test: Ion channel panel (IonWorks Barracuda): α4β2; format: cell-based; details: 100% = no change, <100% = inhibition
T5 construct: host or cells: HEK293 or CHO
Summary of the method: as §1

GABA = test: Ion channel panel (IonWorks Barracuda): GABA; format: cell-based; details: 100% = no change, <100% = inhibition
Summary of the method: as §1

NR2A = biological target: T6, NR2A (Homo sapiens, UniProt Q12879); test: Ion channel panel (IonWorks Barracuda): NR2A; format: cell-based; details: 100% = no change, <100% = inhibition
T6 construct: host or cells: HEK293 or CHO
Summary of the method: as §1

Nav1.7 = biological target: T7, Nav1.7 (Homo sapiens, UniProt Q15858); test: cell-based; format: cell-based; details: 100% = no change; for Activity of Nav1.7 with peptide, expressed as a percentage of the reference compound: peptide at 0.2 μM; for Activity of Nav1.7 with peptide (percentage of the reference compound): peptide at 20 μM
T7 construct: host or cells: HEK293 or CHO

α3β4 = biological target: T8, α3β4 (Homo sapiens, UniProt P30926+P32297); test: Ion channel panel (IonWorks Barracuda): α3β4; format: cell-based; details: 100% = no change, <100% = inhibition
T8 construct: host or cells: HEK293 or CHO
Summary of the method: as §1

TRPV1 = biological target: T9, TRPV1 (Homo sapiens, UniProt Q8NER1); test: Ion channel panel (IonWorks Barracuda): TRPV1; format: cell-based; details: 100% = no change, <100% = inhibition
T9 construct: host or cells: HEK293 or CHO
Summary of the method: as §1

Kv1.2 = biological target: T10, Kv1.2 (Homo sapiens, UniProt P16389); test: cell-based; format: cell-based; details: 100% = no change, <100% = inhibition
T10 construct: host or cells: HEK293 or CHO
Summary of the method: as §1

Kv1.3 = biological target: T11, Kv1.3 (Homo sapiens, UniProt P22001); test: cell-based; format: cell-based; details: 100% = no change, <100% = inhibition
T11 construct: host or cells: HEK293 or CHO
Summary of the method: as §1

Kv1.1 = biological target: T12, Kv1.1 (Homo sapiens, UniProt Q09470); test: cell-based; format: cell-based; details: 100% = no change, <100% = inhibition
T12 construct: host or cells: HEK293 or CHO
Summary of the method: as §1

Kir2.1 = biological target: T13, Kir2.1 (Homo sapiens, UniProt P63252); test: Ion channel panel (IonWorks Barracuda): Kir2.1; format: cell-based; details: 100% = no change, <100% = inhibition
T13 construct: host or cells: HEK293 or CHO
Summary of the method: as §1

5HT3a = biological target: T14, 5HT3a (Homo sapiens, UniProt P46098); test: Ion channel panel (IonWorks Barracuda): 5HT3a; format: cell-based
T14 construct: host or cells: HEK293 or CHO
T14 sequence (P46098 whole entry, looked up): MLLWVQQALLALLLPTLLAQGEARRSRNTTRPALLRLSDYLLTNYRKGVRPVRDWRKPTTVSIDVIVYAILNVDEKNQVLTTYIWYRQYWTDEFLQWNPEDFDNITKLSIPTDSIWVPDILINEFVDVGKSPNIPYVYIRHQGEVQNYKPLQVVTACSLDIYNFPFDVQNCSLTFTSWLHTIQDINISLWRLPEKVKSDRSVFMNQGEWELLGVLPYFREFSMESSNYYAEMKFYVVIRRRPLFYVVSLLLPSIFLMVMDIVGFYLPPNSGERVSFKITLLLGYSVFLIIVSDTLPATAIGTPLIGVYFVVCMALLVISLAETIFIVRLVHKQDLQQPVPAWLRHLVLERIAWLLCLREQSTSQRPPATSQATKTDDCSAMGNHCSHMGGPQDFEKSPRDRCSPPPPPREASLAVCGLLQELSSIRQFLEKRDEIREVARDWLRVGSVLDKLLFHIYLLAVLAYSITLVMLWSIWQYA
Summary of the method: as §1

TRPA1 = biological target: T15, TRPA1 (Homo sapiens, UniProt O75762); test: Ion channel panel (IonWorks Barracuda): TRPA1; format: cell-based; details: 100% = no change, <100% = inhibition
T15 construct: host or cells: HEK293 or CHO
Summary of the method: as §1

hERG = hERG (Homo sapiens, UniProt Q12809); test: in vitro; details: 100% = no change, <100% = inhibition
Summary of the method: as §1

Nav1.5 = Nav1.5 (Homo sapiens, UniProt Q14524); test: in vitro; details: 100% = no change; for Activity of Nav1.5 with peptide, expressed as a percentage of the reference compound: peptide at 0.2 μM; for Activity of Nav1.5 with peptide (percentage of the reference compound): peptide at 20 μM
Summary of the method: as §1

[1] = first of two Nav1.7 columns (probably TP1)
[2] = second of two Nav1.7 columns (probably TP2)
[3] = first of two Nav1.5 columns (probably TP1)
[4] = second of two Nav1.5 columns (probably TP2)

T7 sequence (Q15858 whole entry): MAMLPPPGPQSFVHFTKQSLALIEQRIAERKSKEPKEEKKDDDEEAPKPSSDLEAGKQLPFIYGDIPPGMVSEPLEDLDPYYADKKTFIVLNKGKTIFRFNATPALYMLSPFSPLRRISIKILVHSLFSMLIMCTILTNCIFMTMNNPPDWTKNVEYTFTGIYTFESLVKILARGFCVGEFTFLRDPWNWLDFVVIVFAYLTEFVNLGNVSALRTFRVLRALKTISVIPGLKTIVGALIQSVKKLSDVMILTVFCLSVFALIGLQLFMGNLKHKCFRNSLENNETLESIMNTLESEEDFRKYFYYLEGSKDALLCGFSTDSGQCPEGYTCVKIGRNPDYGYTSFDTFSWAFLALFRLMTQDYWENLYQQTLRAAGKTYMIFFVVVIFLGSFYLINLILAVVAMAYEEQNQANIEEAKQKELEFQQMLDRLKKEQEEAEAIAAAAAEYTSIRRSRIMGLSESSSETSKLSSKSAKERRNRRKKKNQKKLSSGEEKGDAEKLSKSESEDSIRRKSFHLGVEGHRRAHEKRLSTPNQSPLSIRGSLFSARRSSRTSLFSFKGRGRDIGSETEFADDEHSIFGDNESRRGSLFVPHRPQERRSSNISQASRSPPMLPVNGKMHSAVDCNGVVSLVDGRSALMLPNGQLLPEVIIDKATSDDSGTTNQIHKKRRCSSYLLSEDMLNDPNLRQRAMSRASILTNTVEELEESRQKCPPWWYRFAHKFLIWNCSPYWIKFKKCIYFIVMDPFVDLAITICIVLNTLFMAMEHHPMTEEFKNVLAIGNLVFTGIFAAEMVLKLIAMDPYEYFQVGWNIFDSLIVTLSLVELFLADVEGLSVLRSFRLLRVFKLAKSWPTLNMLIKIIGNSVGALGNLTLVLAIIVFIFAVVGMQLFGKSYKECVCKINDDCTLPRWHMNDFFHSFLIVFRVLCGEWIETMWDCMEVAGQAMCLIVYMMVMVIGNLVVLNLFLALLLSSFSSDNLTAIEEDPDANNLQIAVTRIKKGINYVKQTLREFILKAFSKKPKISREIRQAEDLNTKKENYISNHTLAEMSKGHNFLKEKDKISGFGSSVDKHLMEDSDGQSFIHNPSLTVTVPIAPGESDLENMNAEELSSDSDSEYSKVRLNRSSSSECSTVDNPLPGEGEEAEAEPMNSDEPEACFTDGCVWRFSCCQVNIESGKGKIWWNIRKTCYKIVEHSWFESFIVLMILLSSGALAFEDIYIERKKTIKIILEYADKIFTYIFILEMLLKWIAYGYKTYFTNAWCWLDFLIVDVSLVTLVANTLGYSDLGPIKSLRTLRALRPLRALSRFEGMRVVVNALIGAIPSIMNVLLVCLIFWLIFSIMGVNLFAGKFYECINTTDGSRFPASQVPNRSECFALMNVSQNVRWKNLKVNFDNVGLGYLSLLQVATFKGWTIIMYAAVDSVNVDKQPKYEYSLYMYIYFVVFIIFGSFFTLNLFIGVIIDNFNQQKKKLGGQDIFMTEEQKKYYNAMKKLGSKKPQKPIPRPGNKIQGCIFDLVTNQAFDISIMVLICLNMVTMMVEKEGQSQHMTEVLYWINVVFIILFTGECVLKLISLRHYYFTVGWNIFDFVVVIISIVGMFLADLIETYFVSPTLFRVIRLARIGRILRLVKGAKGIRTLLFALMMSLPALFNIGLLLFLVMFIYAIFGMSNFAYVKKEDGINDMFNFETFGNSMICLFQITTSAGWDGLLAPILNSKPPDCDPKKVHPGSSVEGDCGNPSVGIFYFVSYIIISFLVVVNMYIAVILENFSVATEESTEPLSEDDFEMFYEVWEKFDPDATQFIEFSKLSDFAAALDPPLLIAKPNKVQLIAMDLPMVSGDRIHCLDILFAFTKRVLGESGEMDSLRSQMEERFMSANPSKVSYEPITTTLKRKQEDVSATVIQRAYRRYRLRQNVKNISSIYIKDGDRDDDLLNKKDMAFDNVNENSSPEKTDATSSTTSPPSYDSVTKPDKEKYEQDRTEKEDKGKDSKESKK
Sequence of Nav1.5 (Q14524 whole entry): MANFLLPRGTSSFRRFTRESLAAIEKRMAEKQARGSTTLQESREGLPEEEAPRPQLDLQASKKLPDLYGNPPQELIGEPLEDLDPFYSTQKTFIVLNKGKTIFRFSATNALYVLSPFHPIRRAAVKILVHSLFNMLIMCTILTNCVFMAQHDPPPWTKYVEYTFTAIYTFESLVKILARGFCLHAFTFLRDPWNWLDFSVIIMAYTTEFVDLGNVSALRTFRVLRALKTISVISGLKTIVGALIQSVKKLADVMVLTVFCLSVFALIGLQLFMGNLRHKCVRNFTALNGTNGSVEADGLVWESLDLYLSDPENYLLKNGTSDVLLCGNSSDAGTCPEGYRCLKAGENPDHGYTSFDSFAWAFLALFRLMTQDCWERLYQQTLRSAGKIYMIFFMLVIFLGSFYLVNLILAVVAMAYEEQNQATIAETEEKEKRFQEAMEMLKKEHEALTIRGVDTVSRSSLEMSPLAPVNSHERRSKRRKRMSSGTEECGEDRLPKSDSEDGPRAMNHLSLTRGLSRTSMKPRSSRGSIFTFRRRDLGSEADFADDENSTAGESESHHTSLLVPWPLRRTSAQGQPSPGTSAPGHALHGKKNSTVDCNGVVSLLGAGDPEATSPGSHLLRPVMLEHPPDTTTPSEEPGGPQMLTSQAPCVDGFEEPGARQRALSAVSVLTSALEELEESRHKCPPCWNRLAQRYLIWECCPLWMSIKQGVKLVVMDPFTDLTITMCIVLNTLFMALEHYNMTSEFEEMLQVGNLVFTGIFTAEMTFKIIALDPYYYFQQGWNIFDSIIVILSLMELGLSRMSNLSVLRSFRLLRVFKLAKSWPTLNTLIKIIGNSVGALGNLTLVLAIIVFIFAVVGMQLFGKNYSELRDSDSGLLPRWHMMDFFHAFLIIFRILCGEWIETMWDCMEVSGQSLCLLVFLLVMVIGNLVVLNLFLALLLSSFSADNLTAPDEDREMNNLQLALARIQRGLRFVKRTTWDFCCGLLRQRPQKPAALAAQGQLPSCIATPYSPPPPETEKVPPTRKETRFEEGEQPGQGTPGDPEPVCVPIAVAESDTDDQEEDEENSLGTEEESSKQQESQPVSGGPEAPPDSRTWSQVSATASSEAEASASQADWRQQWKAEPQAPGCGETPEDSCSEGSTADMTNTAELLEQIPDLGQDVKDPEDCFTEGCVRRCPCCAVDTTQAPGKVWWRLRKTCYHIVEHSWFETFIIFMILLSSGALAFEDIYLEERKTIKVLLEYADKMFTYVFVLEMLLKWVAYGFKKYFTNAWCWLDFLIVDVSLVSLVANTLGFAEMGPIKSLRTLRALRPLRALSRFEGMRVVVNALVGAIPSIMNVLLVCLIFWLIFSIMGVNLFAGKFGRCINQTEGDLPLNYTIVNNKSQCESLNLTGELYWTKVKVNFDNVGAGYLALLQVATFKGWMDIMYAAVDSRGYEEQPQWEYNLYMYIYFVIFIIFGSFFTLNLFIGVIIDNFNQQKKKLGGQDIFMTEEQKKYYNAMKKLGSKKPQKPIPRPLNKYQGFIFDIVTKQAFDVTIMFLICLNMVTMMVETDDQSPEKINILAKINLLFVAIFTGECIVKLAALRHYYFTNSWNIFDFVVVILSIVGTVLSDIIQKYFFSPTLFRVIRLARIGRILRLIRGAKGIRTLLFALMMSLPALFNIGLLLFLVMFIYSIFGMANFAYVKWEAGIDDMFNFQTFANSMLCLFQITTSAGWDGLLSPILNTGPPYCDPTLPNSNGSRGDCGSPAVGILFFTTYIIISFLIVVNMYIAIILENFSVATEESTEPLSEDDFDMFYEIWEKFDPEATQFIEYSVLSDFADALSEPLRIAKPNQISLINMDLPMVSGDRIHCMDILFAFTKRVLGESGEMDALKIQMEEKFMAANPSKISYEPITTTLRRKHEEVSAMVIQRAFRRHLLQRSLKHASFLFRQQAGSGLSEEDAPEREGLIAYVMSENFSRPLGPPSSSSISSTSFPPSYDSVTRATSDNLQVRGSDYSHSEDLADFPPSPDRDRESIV
T3 sequence (Q14721 whole entry): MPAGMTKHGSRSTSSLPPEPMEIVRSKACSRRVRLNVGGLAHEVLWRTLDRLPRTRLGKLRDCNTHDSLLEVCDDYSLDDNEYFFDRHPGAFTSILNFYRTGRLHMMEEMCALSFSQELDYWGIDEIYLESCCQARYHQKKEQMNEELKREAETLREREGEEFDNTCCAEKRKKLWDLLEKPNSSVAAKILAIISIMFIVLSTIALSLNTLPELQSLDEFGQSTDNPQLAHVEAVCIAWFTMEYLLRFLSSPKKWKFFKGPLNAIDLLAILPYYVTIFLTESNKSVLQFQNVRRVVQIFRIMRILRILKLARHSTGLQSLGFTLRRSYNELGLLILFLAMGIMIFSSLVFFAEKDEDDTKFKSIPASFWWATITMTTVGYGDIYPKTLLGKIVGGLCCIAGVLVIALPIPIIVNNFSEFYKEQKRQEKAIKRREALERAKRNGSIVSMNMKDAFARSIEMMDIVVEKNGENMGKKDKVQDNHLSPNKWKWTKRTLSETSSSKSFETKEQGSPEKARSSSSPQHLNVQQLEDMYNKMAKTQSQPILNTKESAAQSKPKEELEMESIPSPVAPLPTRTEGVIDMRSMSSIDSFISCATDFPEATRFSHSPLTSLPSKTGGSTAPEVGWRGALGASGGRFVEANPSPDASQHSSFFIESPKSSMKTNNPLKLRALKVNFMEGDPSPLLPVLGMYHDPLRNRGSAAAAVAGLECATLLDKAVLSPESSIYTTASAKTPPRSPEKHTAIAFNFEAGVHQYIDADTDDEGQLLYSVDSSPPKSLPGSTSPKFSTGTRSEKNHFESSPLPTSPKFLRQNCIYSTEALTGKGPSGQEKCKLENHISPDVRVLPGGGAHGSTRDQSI

23 (GSCIGEGVPCDENDPRCCFGLVCLKPTLHGIWYKSYYCYKK) [compound 23]
Activity of NR2B with peptide, expressed as a percentage of the reference compound (NR2B; peptide at 0.2 μM): 95% | Activity of NR2B with peptide (percentage of the reference compound) (NR2B; peptide at 20 μM): 82% | Activity of Cav2.2 with peptide, expressed as a percentage of the reference compound (Cav2.2; peptide at 0.2 μM): 110% | Activity of Cav2.2 with peptide (percentage of the reference compound) (Cav2.2; peptide at 20 μM): 95% | Activity of Kv2.1 with peptide, expressed as a percentage of the reference compound (Kv2.1; peptide at 0.2 μM): 93% | Activity of Kv2.1 with peptide (percentage of the reference compound) (Kv2.1; peptide at 20 μM): 103% | Activity of Cav2.1 with peptide, expressed as a percentage of the reference compound (Cav2.1; peptide at 0.2 μM): 95% | Activity of Cav2.1 with peptide (percentage of the reference compound) (Cav2.1; peptide at 20 μM): 102% | Activity of a4b2 with peptide, expressed as a percentage of the reference compound (α4β2; peptide at 0.2 μM): 87% | Activity of a4b2 with peptide (percentage of the reference compound) (α4β2; peptide at 20 μM): 79% | Activity of GABA with peptide, expressed as a percentage of the reference compound (GABA; peptide at 0.2 μM): 100% | Activity of GABA with peptide (percentage of the reference compound) (GABA; peptide at 20 μM): 103% | Activity of NR2A with peptide, expressed as a percentage of the reference compound (NR2A; peptide at 0.2 μM): 88% | Activity of NR2A with peptide (percentage of the reference compound) (NR2A; peptide at 20 μM): 89% | Activity of Nav1.7 with peptide, expressed as a percentage of the reference compound (Nav1.7; [1]): 89% | Activity of Nav1.7 with peptide, expressed as a percentage of the reference compound (Nav1.7; [2]): 93% | Activity of Nav1.7 with peptide (percentage of the reference compound) (Nav1.7; [1]): 65% | Activity of Nav1.7 with peptide (percentage of the reference compound) (Nav1.7; [2]): 63% | Activity of a3b4 with peptide, expressed as a percentage of the reference compound (α3β4; peptide at 0.2 μM): 94% | Activity of a3b4 with peptide (percentage of the reference compound) (α3β4; peptide at 20 μM): 93% | Activity of TRPV1 with peptide, expressed as a percentage of the reference compound (TRPV1; peptide at 0.2 μM): 117% | Activity of TRPV1 with peptide (percentage of the reference compound) (TRPV1; peptide at 20 μM): 87% | Activity of Kv1.2 with peptide, expressed as a percentage of the reference compound (Kv1.2; peptide at 0.2 μM): 83% | Activity of Kv1.2 with peptide (percentage of the reference compound) (Kv1.2; peptide at 20 μM): 106% | Activity of Kv1.3 with peptide, expressed as a percentage of the reference compound (Kv1.3; peptide at 0.2 μM): 81% | Activity of Kv1.3 with peptide (percentage of the reference compound) (Kv1.3; peptide at 20 μM): 77% | Activity of Kv1.1 with peptide, expressed as a percentage of the reference compound (Kv1.1; peptide at 0.2 μM): 95% | Activity of Kv1.1 with peptide (percentage of the reference compound) (Kv1.1; peptide at 20 μM): 102% | Activity of Kir2.1 with peptide, expressed as a percentage of the reference compound (Kir2.1; peptide at 0.2 μM): 105% | Activity of Kir2.1 with peptide (percentage of the reference compound) (Kir2.1; peptide at 20 μM): 82% | Activity of 5HT3a with peptide (percentage of the reference compound) (5HT3a): 101% | Activity of 5HT3a with peptide, expressed as a percentage of the reference compound (5HT3a): 74% | Activity of TRPA1 with peptide, expressed as a percentage of the reference compound (TRPA1; peptide at 0.2 μM): 126% | Activity of TRPA1 with peptide (percentage of the reference compound) (TRPA1; peptide at 20 μM): 83% | Activity of hERG with peptide, expressed as a percentage of the reference compound (hERG; peptide at 0.2 μM): 92% | Activity of hERG with peptide (percentage of the reference compound) (hERG; peptide at 20 μM): 78% | Activity of Nav1.5 with peptide, expressed as a percentage of the reference compound (Nav1.5; [3]): 85% | Activity of Nav1.5 with peptide, expressed as a percentage of the reference compound (Nav1.5; [4]): 87% | Activity of Nav1.5 with peptide (percentage of the reference compound) (Nav1.5; [3]): 85% | Activity of Nav1.5 with peptide (percentage of the reference compound) (Nav1.5; [4]): 83%
